Experimental data taken from article PMC11044963, “Probing the CRL4^DCAF12 interactions with MAGEA3 and CCT5 di-Glu C-terminal degrons” (PNAS Nexus, 2024).

Tests used:
[1] = system: DCAF12 mutants K91A, K108A, R203A, R256A, R344A; test: NanoBRET with full-length proteins, DCAF12 mutants; format: cell-based, human; conditions: HEK293T cells; FL protein; all DCAF12 mutations vs WT
Text: Fig. 2. Conserved arginine and lysine residues near DCAF12 central channel participate in MAGEA3 binding in cells. A) DCAF12 electrostatic surface potential analysis showing negatively and positively charged residues colored in red and blue, respectively. On the left, DDB1 contacting surface of DCAF12. On the right, substrate contacting surface with positively charged residues—Arg203, Arg256, and Arg344—highlighted as sticks. Electrostatic potential is shown on a scale of −10 (red) kT/e to 10 (blue). B) Conservation analysis of DCAF12 showing high conservation of the same positively charged residues (represented as sticks) among homologous sequences. Residues were colored on a scale from variable/low conservation (dark teal) to high conservation (magenta). […]
(§1) HEK293T cells were plated in 96-well plates (2 × 10^4/well) and 4 h later transfected with 0.03 µg/well N-terminally HT-tagged DCAF12 (WT or mutants) or HT alone and 0.001 µg/well N-terminally NL-tagged CCT5 and MAGEA3 (FL or -EE degrons) using X-tremeGene HP transfection reagent (Roche), following the manufacturer's instructions. […] Four hours later, 10 µL of NanoBRET Nano-Glo Substrate solution (8 µL/mL Nano-Glo substrate (Promega) diluted in DMEM/F12 no phenol red, supplemented with 4% FBS, penicillin 100 U/mL, and streptomycin 100 µg/mL) was added, and the signal was read. […]

DCAF12 = test: NanoBRET with full-length proteins, DCAF12; format: cell-based, human; conditions: HEK293T cells; FL protein
Text: To further investigate the DCAF12 interaction with MAGEA3 and CCT5 in cells, we developed a NanoBRET assay, which measures the interaction of […] FL MEAGEA3/CCT5 or C-terminal peptide containing degron sequences ([…]/[…], respectively). When donor and acceptor proteins are in close proximity, the donor excites the acceptor, which then emits fluorescence, allowing for direct measurement of protein–protein interaction in cells.
as §1, with “read. Donor emission at 450 nm (filter: 450 nm/BP 80 nm) and acceptor emission at 618 nm (filter: 610 nm/LP) were measured within 10 min of substrate addition using CLARIOstar microplate reader (Mandel).” for “read.”

B1: MAGEA3-FL: full-length melanoma-associated antigen 3 protein (protein)
chain: MPLEQRSQHCKPEEGLEARGEALGLVGAQAPATEEQEAASSSSTLVEVTLGEVPAAESPDPPQSPQGASSLPTTMNYPLWSQSYEDSSNQEEEGPSTFPDLESEFQAALSRKVAELVHFLLLKYRAREPVTKAEMLGSVVGNWQYFFPVIFSKASSSLQLVFGIELMEVDPIGHLYIFATCLGLSYDGLLGDNQIMPKAGLLIIVLAIIAREGDCAPEEKIWEELSVLEVFEGREDSILGDPKKLLTQHFVQENYLEYRQVPGSDPACYEFLWGPRALVETSYVKVLHHMVKISGGPHISYPPLHEWVLREGEE
modifications: left off: NanoLuc, N-terminal, kept
notes: full-length melanoma-associated antigen 3 protein
decrease of DCAF12 interaction by mutations, NanoBRET [1]: over 50% | BRET signal over negative control (DCAF12): 22 fold
